Measurements reported in patent CN111995674A (INST MILITARY MEDICINE ACADEMY MILITARY SCIENCES PLA, dated 2020).

Target: T1, 肉毒毒素AHC片段 (UniProt P0DPI1 873-1296)
T1 construct: domain: AHC片段
Assay: ELISA, coated antigen, anti-human IgG-HRP

T1 sequence (P0DPI1 873-1296 limits assumed): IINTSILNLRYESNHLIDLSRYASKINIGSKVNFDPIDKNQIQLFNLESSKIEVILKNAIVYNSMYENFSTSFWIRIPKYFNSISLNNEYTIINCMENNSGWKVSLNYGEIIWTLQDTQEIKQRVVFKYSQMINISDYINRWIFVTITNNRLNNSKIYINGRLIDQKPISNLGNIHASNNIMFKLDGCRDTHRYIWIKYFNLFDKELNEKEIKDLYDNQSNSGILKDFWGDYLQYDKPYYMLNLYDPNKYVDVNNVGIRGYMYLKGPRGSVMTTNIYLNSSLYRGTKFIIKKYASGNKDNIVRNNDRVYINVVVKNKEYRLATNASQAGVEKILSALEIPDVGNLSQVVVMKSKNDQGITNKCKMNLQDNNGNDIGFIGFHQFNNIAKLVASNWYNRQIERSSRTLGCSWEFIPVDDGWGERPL

B1: 人鼠嵌合全抗体mhC3 (antibody, V domains shown)
VH: EVQLVESGGDLVKPGGSLKLSCAASGFTFNTYAMNWVRQTPGKGLEWVARIRSKSNNYATYYADSVKDRFTISRDDSQSMLYLQMNNLKTEDTAMYYCVTPYYGNYADWFTYWGQGTSVTVSS
VL: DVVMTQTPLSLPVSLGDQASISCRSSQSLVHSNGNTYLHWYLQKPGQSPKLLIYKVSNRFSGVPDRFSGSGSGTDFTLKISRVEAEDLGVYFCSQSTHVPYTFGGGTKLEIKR
notes: also called mhC3抗体; C3 (图5、图6)
binding result: no binding (tested: 300μg/mL)
